# From the DeepSol protein solubility set
# Assay: soluble on expression in E. coli; label from the status in PepcDB or PDB records
row,Sequence,soluble on expression in E. coli
1,MKRLLVFLPLLLLACAPKPEAEAPQTTAPLRVQVRTLKAEPGLLTREARASANVVAEKESLVAAGASGRVVRTLPAGTRVRAGEGVVFLDPAPFQEALAQAKLALRQAEENLARAEAQTEGNRKALEAQLAAAEAQLAAAKRRYEEGKALLALGALAPLELKGLEAQYLQAQSAYENAKEALARLEREDDLRLLRLQVEAARLQVQQAERNLKESVVRAPFAGEVVEVYVKEGEFTGAGSRAFRLATTDRLLVKVYLPPERAAALTEDTAFRVRQNGKEVEARLQAKSDLPGQNRLVEVTLRPTGPLLPGAAEVRYPEVLAEGLLLPAGAVRTEDGEAFVYVVEEGRARKRPVRLLAQEGGRAAVAGLEAGEAVVYPVPEGLEDGDLVEVVP,soluble
2,MGSDKIHHHHHHMKGQLFVICGPSGAGKTSIIKEVLKRLDNVVFSVSCTTRPKRPHEEDGKDYFFITEEEFLKRVERGEFLEWARVHGHLYGTLRSFVESHINEGKDVVLDIDVQGALSVKKKYSNTVFIYVAPPSYADLRERILKRGTEKEADVLVRLENAKWELMFMDEFDYIVVNENLEDAVEMVVSIVRSERAKVTRNQDKIERFKMEVKGWKKL,not soluble
3,MDGKRVWLSDDELTRFIEQAETPHQRLAFLLAGRVGLRRSEIIEVCPQDLVDGPTGDHIRVWESYAKRDKYREPPVPQEVVTIAETLAYQQDDDEPLLDVAGSTVYRWVRRAADELEEETGDRGWQYLDVHDLRRTWGTYLLEQGVIPSVVMSFGGWEDWDTFRKHYLGLEHHHHHH,not soluble
4,MAFFESDIVQDEAKRLFGDYQQLMQLGSEYGKFDREGKKKFIETMEELMGRYRVFMKRFELSEDFQAKLTVEQLRTQLSQFGITPEQMFEQMNATLERMKAQIELPPSS,not soluble
5,SEQDKWKTSAQLWQNLDEETIRALWNVQGQLNKLEEERDKAIEEIERQFLESSRPLYEERQRICSLVDRFWFHVLCSHPYTGTKMTNKDRTVLQHLEDVFFTEIENCMQGYQINLKFSPNDYIEDEIIWKQVKYVDDLQGWKGAASGIRWKRQDSIIDPDNEFFSDGEEVLQLTEKGNTVAKLQRKARSLLSWFETEDVTDNLKDVFYEDIWQHCIDWFFARDNASIEEFPVTMEGEQEDIVMID,soluble
6,MGSDKIHHHHHHMKYGIVGYSGRMGQEIQKVFSEKGHELVLKVDVNGVEELDSPDVVIDFSSPEALPKTVDLCKKYRAGLVLGTTALKEEHLQMLRELSKEVPVVQAYNFSIGINVLKRFLSELVKVLEDWDVEIVETHHRFKKDAPSGTAILLESALGKSVPIHSLRVGGVPGDHVVVFGNIGETIEIKHRAISRTVFAIGALKAAEFLVGKDPGMYSFEEVIFGGE,soluble
7,MGVATMVTDKYQKCIDACNRCSQACYECFKACLNEPDVNARRTCISILFECAQMCQMSSALMSMDAQFAIDHCKLCSVICDKCAQECSMFQDPHCQKCANECRTCSNECRMMSGMLEHHHHHH,soluble
8,MIQIVRDNFPGLETAEQLEDYKKTVIKNIERKTALFTKSDNGNIVGVLIFSYYSKCLSCMAVHPDYRKMGIGYAMVKKMIDLFPKDMDISVTTFREGDLKGVAPRAPYKKIGFLEDEFVEEFNYPHQKFIFRNRP,not soluble
9,MTDCEFGYIYRLAQDYLQCVLQIPQPGSGPSKTSRVLQNVAFSVQKEVEKNLKSCLDNVNVVSVDTARTLFNQVMEKEFEDGIINWGRIVTIFAFEGILIKKLLRQQIAPDVDTYKEISYFVAEFIMNNTGEWIRQNGGWENGFVKKFEPKSGWMTFLEVTGKICEMLSLLKQYC,soluble
10,GPGSMSAAACSWRHTEWTPYEVLNVPPSAPIGDIRAAFKCMALHTHPDKATVTTSARRASGSGATSCSEFPVSFHIVKEASEMLLDPYLRAAYDAARSQALTREVGAISDTYSLMDDFVRVRMDGDESDRQRVHVYQRECRCGGVYEVAVFPEAPAGSGEDEDVPLTYSARTLRCECDSCSLVVEVVA,soluble
11,MSLLALGIEGTAHTLGIGIVSEKKVLANVFDTLTTEKGGIHPKEAAEHHARLMKPLLKKALEKAGISMDDIDVIAFSQGPGLGPALRVVATAARALAIRYNKPIVGVNHCIAHVEITKMFGIKDPVGLYVSGGNTQVLALEGGRYRVFGETLDIGIGNAIDVFARELGLGFPGGPKLEKLAEKGKNYIDLPYAVKGMDLSFSGLLTEAIRKYRSGKFRVEDLAYSFQETAFAALVEVTERALAHTEKKEVVLVGGVAANNRLREMLKIMAEDRGVKFFVPPYDLCRDNGAMIAYTGLRMYKAGISFPLEKTIVKQKFRTDEVEITWEGHHHHHH,not soluble
12,MFRTITSRLAFSVRQAEETVKPRIAYAQRSGRRIKEKVALMQAKRKEAGETGAPEKPGKFVLKTGKGTRDYGPAQSALRNSVLQTVTETFNRYGAETIDTPVFELRDVLMGKYGEEGGKLVYDLQDQGGELLSLRYDLTVPFARYLAMNKITNITRYQIAKVYRRDQPVMSRGRYREFYQCDFDIAGQYDLMLPEAECLGIVDELLTKLEIGEFFINLNHRLILEGMFAVSGIPAKDFKTICSSVDKLDKTPWEDVEQEMINEKFLTKEQTGKLGELVRFRELNSDLNNLELLEKMSQLPDLGQNDKFKKGAEELKVLIEYLNVDGVTTVRYEPSLARGLDYYTGAIYEAVAPKALEGTAVENSEDTAGQPVGVGSVAAGGRYDGLVKMFDSKANVPCCGVSFGIERLFAIMEARQKVAIRTTQTEVYVASAQKNLVRDRKKLVKMLRSAGIKTEMALKANPKLLTQFQYAEERRIPLAIVIGEQELKDGVVKLRNVVTRDEQTIKLDQLITAVRDTLAAL,not soluble
13,MDIILGIRVQDSVILASSKAVTRGISVLKDSDDKTRQLSPHTLMSFAGEAGDTVQFAEYIQANIQLYSIREDYELSPQAVSSFVRQELAKSIRSRRPYQVNVLIGGYDKKKNKPELYQIDYLGTKVELPYGAHGYSGFYTFSLLDHHYRPDMTTEEGLDLLKLCVQELEKRMPMDFKGVIVKIVDKDGIRQVDDFQAQ,soluble
14,MGHHHHHHSHMAERETETSNSESKQDKAASSKEKNGCNANSFEGSSTTKSEESITVSDKENETCLADQETGSKNIVSCDSNIGADKVEKKKQIQHVCQEMELKMCQSSENIILSDQIKDHNSSEARFSSKNIKDLRLASDNVSIDQFLRKRHEPESVSSDVSEQGSIHLEPLTPSEVLEYEATEILQKGSGDPSAKTDEVVSDQTDDIPGGNNPSTTEATVDLEDEKERS,soluble
15,MELTFNQAAKGVNKEFTVNIMDTCERCNGKGNEPGTKVQHCHYCGGSGMETINTGPFVMRSTCRRCGGRGSIIISPCVVCRGAGQAKQKKR,soluble
16,MSLKNELEFAKKLIDFIYDSPSPFHSVDNIKNTLIENGFAEIKEENKWELNKNGKYFVKRNDSALIAFTVGSGFVAKKGFKIIGGHTDSPTFRIKPNPEMVSENSYIKLNTEVYGGPILSTWFDRPLSIAGRVTVRGKSALFPETKLLNIKRPILVIPNLAIHMNRDVNSGFKINPQVDTLPIIGIINDKFEKENYLMKIIASELGEDIENIIDFDLFLYEYDKGCIMGINNEFISSSRLDDMEMVHAGLNALVNAKCSEATNVLACFDNEEIGSATKQGADSQFLSDILERIVLSFGGDREDFFRALHNSFMISSDSAHAVHPNKGEKADPITRPHINEGPVIKISAAQKYTSDSNSIAVYEEVCRLSGVPYQKFVNRSDERGGSTIGPITATHTAIRTVDIGTPLLAMHSIRELCGTLDHMYVEKSFEEFYNEGHHHHHH,soluble
17,MTGSCSDLLGFQYNNTVISSATLQETGTLTVANKPIGAHCLVKGYMDQHVSPVDGQTYQIGFEMRLPIDWNGRFLYQGNGGTDGNLVPATGQVGSGGPLTNALHDGFAIISSDAGHNASQNPMFGLDPQARINYGYGAITKLTPMAKNLIKAAYGKLPDRSYAGGTSNGGRHAMIAATRLGDQYDGILASTPGFHLPRAAAAQLYTAQQLRRVATDENDLSTALTLPERKVLAKAILDRCDALDGVTDGLVQDVEACRTAFDIHKHVTVCSSTRDGTCLSTEQIDVLANIYRGPVNSAGQALYATQPFDPGLVGSNWASWKFESSVGTARDPVAVGILFQVPPDPTVTQNSRQFALNFNFDTDYPKLSATNDVYTESSMSFMMPPDELNLDKLRNHGGKMIVVQGTADGVFSVDDTQNWYDQLLQHYKNDAKGTAPEFARFFRVPGMNHTRDGIATDQFDALTALVNWVEYGQAPDKIIATARGAGNPSGQVNTEIPQDWAPDRTRPLCPYPLIARYNGQGDLEHHHHHH,not soluble
18,MSLGSMSATPLQAGLKTLQLTEPFRIAHGTSTERQVLRLRWNGAVGEAPVVPYYKESAAVTLEWLQALDWNGSPAPKDGPRLGRLALDLLWHDAVGRDKRQTLGQMLHLNPAQTPPGCRSFSIPTDLDKFAEKVAQVSRQFQVLKLKTGSGNVEFDEAIVATARKAAPDAKLLVDANGGWTVEETAAILPKLVKYDLTLVEQPFHHDGGSESWRELKYLLPSHSIPLYADESAQGPDDVLTLAGLVDGVNVKLLKCGSIAEAQTMIRFARASGMGVLLGCMIESSVGVTAAAHLAPLADWIDLDGHLYVADDDYEGVSYDEQGRLHLRDLPGLGVTPREGHHHHHH,soluble
19,MGHHHHHHDTDIPTTENLTFQGACRLVANCRDVRCRRLLRNVMPVAGSELPRRPLPPAAQERDAEPRPPHGELQYLGQIQHILRCGVRKDDRTGTGTLSVFGMQARYSLRDEFPLLTTKRVFWKGVLEELLWFIKGSTNAKELSSKGVKIWDANGSRDFLDSLGFSTREEGDLGPVYGFQWRHFGAEYRDMESDYSGQGVDQLQRVIDTIKTNPDDRRIIMCAWNPRDLPLMALPPCHALCQFYVVNSELSCQLYQRSGDMGLGVPFNIASYALLTYMIAHITGLKPGDFIHTLGDAHIYLNHIEPLKIQLQREPRPFPKLRILRKVEKIDDFKAEDFQIEGYNPHPTIKMEMAV,soluble
20,MSLIPKIKDISVIECQPAGVRLTVVKITTDQDGLYGYGCATFTQRADLVKPAVERYLKPFLMGKTTDRIEDIWQSCYDSSYWKNGPVLNNAISGIDQALWDIKGRQAGLPVYQLAGGKCREAADCYAHADGADFPNVVEAAKRYMAQGFRHVRVQIGVPGMAGYGSSRGDTKVQALHSKPVFEPAYYVRRALKLFEVCRTELGEEIELLHDMHERVSPNQAVQFVKDAEKFKMFFMEDPLSPEDIAYFRQIRQQCATPIAMGELFNSPHEWTPLISERLIDYIRVHVSQAGGFTPARKIAILGETFGVKTAWHGPGDVSPIGHMANVTLDLVSYNFGIQEYSPFNGRTQEIFSGCPVMKDGYLYASEKPGWGIEVDEKLAAKAPFTDREGHHHHHH,not soluble
21,MNGKQRMVEQSKQWLSEALIELMKTKDYQDISITEIAQKAELSRKTFYHSFKNKEAVINYLCDQLFDQYFQKLVKQEPQIGEAMLNTTFDIFLNFWWQQRSIIRLLIQQGLFDHMNEIWQKKAVPRYNQFAAPWHVKGTPKQVAYVMAFQLGGFTNILRLWLGQDSPEAPEKIKDLMLLAARQLADSLNPQKN,not soluble
22,MTFAPGFSGGLSPAYRLGSRRSPSPFSEEVRAEEGPGAGGFSQVFHTPCLCLGTMRWKSVLGLAVLLLASLALAQALTLDLRPYLVKVVEGKEVYEANPLAVRPGDVLEWRLVAENRAQGDLRQVALVIPIPKETYYLEGSAKPLQVGGTIVPPEFSFDGGKTFGRPPLKKRIRVVENGKEVEKEVEVKPEEYTHARWVIPVLSKGDKVMVSLRTIVR,soluble
23,MDTMGRHVISELWGCDFDKLNDIDFIEKTFVDAALKSGAEIREVAFHKFAPQGVSGVVIISESHLTIHTFPEHGYASIDVYTCGHLDPTIAADYIAEMLGAQTRETIELPRGMRPIEVKKAQAL,soluble
24,MGHHHHHHSHMLSRWDDSQRFLSDHPYLVCEETAKYLILWCFHLEAEKKGALMEQIAHQAVVMQFIMEMAKNCNVDPRGCFRLFFQKAKAEEEGYFEAFKNELEAFKSRVRLYSQSQSFQPMTVQNHVPHSGVGSIGLLESLPQNPDYLQYSISTALCSLNSVVHKEDDEPKMMDTV,not soluble
